± gives the uncertainty stated by the source.
experiment: amyloid nucleation score (Sup35N fusion, yeast selection) (log enrichment); library NNK1; higher = more nucleation; inactive = no reads after selection
How it was run: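 Growth for 7 days at 30°C on medium lacking adenine and uracil followed a 24-hour induction with 100 μM copper sulfate of psi-negative yeast expressing peptides of 20 random codons fused to Sup35N. Input and output plasmid inserts were sequenced with Illumina, and sequences with under 100 input reads were excluded. Nucleation score is the DiMSum log enrichment of output over input reads, centred on the mode score of non-aggregating sequences.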

| Substance | amyloid nucleation score |
| --- | --- |
| CNDHNNEYVNVSHTRRARL | 0.99 ± 0.24 |
| CNFKIVSWVVNQVLFFSHFA | -1.37 ± 2.1 |
| CNGAGNLEGDGF | 0.317 ± 0.33 |
| CNILVTRFSNSREFNRCTWR | inactive |
| CNITWSFSDRLWY | 0.476 ± 0.27 |
| CNQMSFFTEALVNKLHLFFT | inactive |
| CNVEAG | -1.55 ± 1.1 |
| CNVKCLRVARFDFVYRFFLP | inactive |
| CPAWFFCIVKKYFKTVAQTV | 0.291 ± 0.48 |
| CPCWLLMLFPCISYRRNLIV | -0.605 ± 0.46 |
| CPIWPVCWEVNHVPYLTKDI | 0.58 ± 0.79 |
| CPYRYYHTNLFMVIFLYRGM | -0.349 ± 0.47 |
| CQCGMVGVL | -0.005 ± 0.45 |
| CQFYWLTGPCMRRLRCGSVQ | 0.052 ± 0.36 |
| CQIFGNFWWKCIVGCRQIRF | inactive |
| CQYRTTYSASFLNRS | inactive |
| CQYVCRDNFDYQTSSSCGCD | inactive |
| CRKFQWLSLM | -0.921 ± 1.7 |
| CRLCVLCAMYGI | 0.939 ± 0.26 |
| CRMRMLRKYVFLD | -0.427 ± 0.61 |
| CRPVGRRYKWFTFSGGLLLR | 1.14 ± 0.9 |
| CRSSSERSIFG | 0.439 ± 0.53 |
| CSAMPAFWAGHRSGASLHER | 0.017 ± 0.4 |
| CSAYDQVWDTNGRVCFA | -0.003 ± 0.41 |

| Substance | amyloid nucleation score |
| --- | --- |
| CSCINSHLWSTSG | 0.386 ± 0.32 |
| CSDRCTTYCLFSLSDRKRIL | -0.317 ± 0.25 |
| CSEISCPLTKHRCGTLVRVL | -0.761 ± 1.2 |
| CSGSTRVKHFHRFFTNWLLM | 0.323 ± 0.63 |
| CSKVVSSVLVQL | -0.322 ± 0.45 |
| CSLIIFAYRRLEFMILFYFD | -0.26 ± 0.49 |
| CSLVLAIRHATCQEVVVGSC | 0.602 ± 0.6 |
| CSREYDVVGLA | 0.401 ± 0.28 |
| CSSHDQFSAR | -0.214 ± 0.77 |
| CSYCVAENQFMEFRGFMRGP | 0.234 ± 0.34 |
| CTKCYPGVLYYFDCSGPGTR | -0.51 ± 0.65 |
| CTWWSMWNNNWDKFLTREQL | 0.19 ± 1.1 |
| CTWYKFDIGWAEGLGYRDYP | 0.282 ± 1.2 |
| CVHLSKRCKLPVKIISLCLN | 0.767 ± 1 |
| CVHTSVDDGRNYVKNLNDAR | inactive |
| CVIKHSLRCFAIIGLSHRGG | -0.255 ± 0.97 |
| CVKAD | -0.354 ± 0.54 |
| CVKSYK | 0.48 ± 0.66 |
| CVLFESQ | -0.188 ± 0.44 |
| CVMVVSF | 0.934 ± 0.42 |
| CVTLTCLLSSIV | 1.84 ± 0.12 |
| CVWMVETRQWREGFKCMPER | 0.532 ± 0.97 |
| CVWVKGHSRCLTTSLVRRSR | -0.022 ± 0.42 |
| CWDFISCSGQVVNGWSKDSS | -0.008 ± 0.42 |

| Substance | amyloid nucleation score |
| --- | --- |
| CWFANRSLPVQIPRVW | -0.394 ± 0.48 |
| CWIFQDCCQKDCMLFLPCCK | 0.554 ± 0.26 |
| CWLRIGSSFRRARSGWTCDS | -0.834 ± 0.91 |
| CWVETLTICACLTFTFFFWN | 2.48 ± 0.14 |
| CWYWDSPSVGFTAILYYLAG | 0.138 ± 0.57 |
| CYASKMFWVVF | 2.06 ± 0.27 |
| CYLLSRGYWSDMLGKWARGV | 0.131 ± 0.54 |
| CYNNF | inactive |
| CYVVKVLFRPIY | 1.01 ± 0.97 |
| DACMTGSTLTGYLSTDVGLI | inactive |
| DAGRWSYPGRCPNMWLRLLM | -0.461 ± 0.68 |
| DARFLSWNANMID | 0.31 ± 0.19 |
| DAWEDGSKMYESLGV | -1.01 ± 0.56 |
| DCCISVSHSGRAALYVKVEI | 0.022 ± 0.46 |
| DCDYGCLKLSEEFGSVSSFR | 0.165 ± 1.4 |
| DCFLCLKVLGMSAVLREWYL | -1.17 ± 0.94 |
| DCGDSKRYVRITMFYFNRII | -0.262 ± 0.34 |
| DCMFYVDRTGRSIGVVSIVE | -0.021 ± 0.28 |
| DCNPSWIPFLVCHRIYACWR | 1.41 ± 0.64 |
| DDLACRSQ | 0.614 ± 0.27 |
| DDVYSRYVNEGLGWCFIVYL | inactive |
| DELGAMMRIFSFSCNP | -0.147 ± 1.1 |
